Test results from publication PMC8126837.

Target: human angiotensin-converting enzyme 2 (ACE2) (human) (UniProt Q9BYF1)
Experiment: FRET or BRET

Chain of human angiotensin-converting enzyme 2 (ACE2) (human) (Q9BYF1 18-740): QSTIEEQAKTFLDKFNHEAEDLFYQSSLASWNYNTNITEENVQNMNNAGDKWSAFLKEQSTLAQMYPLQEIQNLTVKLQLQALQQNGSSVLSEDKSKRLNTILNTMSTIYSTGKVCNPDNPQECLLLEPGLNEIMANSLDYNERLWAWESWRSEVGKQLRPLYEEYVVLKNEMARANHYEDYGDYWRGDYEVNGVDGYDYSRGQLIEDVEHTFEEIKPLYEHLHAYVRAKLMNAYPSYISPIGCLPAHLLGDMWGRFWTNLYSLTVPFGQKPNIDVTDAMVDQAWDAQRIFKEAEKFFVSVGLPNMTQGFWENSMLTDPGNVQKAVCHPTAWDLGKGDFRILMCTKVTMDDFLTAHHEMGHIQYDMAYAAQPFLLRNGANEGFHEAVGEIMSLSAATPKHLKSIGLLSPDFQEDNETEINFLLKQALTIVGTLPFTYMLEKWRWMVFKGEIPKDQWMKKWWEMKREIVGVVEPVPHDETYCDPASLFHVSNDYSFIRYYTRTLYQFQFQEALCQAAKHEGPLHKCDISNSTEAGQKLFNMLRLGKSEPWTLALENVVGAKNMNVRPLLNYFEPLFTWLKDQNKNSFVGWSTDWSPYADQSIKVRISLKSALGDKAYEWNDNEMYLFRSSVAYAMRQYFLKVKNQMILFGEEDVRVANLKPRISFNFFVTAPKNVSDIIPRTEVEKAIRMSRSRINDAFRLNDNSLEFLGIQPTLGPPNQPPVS

SARS-CoV receptor-binding domain (RBD) (from UniProt P59594) (domain or fragment)
reduction in complex formation (FRET of SARS-CoV-2 RBD with ACE2): 70%
